{
  "source": "paper PMC2944003",
  "data": [
    {"target": "human complement receptor 3 (CR3) on CR3-transfected CHO cells (CHO/CR3) (human) (UniProt P11215)", "test": "flow cytometry on cells", "units": {"fold increase in fluorescence over control levels": "fold"}, "values": [
      {"substance": "fH SCRs 16–20 fused to the Fc fragment of murine IgG2a (Fc fusion)", "fold increase in fluorescence over control levels": 15},
      {"substance": "fH SCRs 6–10 fused to the Fc fragment of murine IgG2a (Fc fusion)", "fold increase in fluorescence over control levels": 3},
      {"substance": "fH SCRs 18–20 fused to the Fc fragment of murine IgG2a (Fc fusion)", "fold increase in fluorescence over control levels": 30}
    ]}
  ]
}
